This note sets out measurements from paper PMC5331220.

The Kd is the constant that tells how readily two partners part at equilibrium. Higher therefore signals lower affinity. For orientation: stoichiometry N means a count of units in the complex or per binding partner.

What all share (experiment): ITC; GppNHp-Rab35 (480 μM) injected in 2 μl aliquots into the C-terminal MICAL1 domain (60 μM) in the cell; 10 °C; 50 mM Tris pH 8, 150 mM NaCl, 2 mM MgCl2, 2 mM TCEP, 5% glycerol; one-site model
(Isothermal titration calorimetry measures the heat released or taken up as one component is titrated into another.)

The target in assay [1] is MICAL1^918–1067 WT C-terminal domain (tag cleaved) (human) (UniProt Q8TDZ2).
The target of assay [2] is MICAL1^879–1067 (tag cleaved, for ITC) (human) (UniProt Q8TDZ2).
Assay [3] concerns the target MICAL1^918–1067 mutant S1 (human) (UniProt Q8TDZ2).

Chain of MICAL1^918–1067 WT C-terminal domain (tag cleaved) (human) (Q8TDZ2 918-1067): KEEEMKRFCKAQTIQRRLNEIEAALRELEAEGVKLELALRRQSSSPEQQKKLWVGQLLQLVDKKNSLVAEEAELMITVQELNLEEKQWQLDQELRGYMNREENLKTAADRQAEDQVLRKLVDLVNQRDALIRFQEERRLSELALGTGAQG
Chain of MICAL1^879–1067 (tag cleaved, for ITC) (human) (Q8TDZ2 879-1067): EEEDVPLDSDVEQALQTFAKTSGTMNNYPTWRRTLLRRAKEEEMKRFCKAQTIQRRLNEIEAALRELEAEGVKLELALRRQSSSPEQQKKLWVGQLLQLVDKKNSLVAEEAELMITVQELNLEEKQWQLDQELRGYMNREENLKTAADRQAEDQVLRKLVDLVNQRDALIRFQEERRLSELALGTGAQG

With “Rab35 (recombinant, for ITC and competition; Rab35^1-199 taken as the likeliest construct) (from UniProt Q15286 1-199) (natural protein)”, the Kd in assay [1] came out at 6.4 µM; in assay [2], 13 µM. Besides, the stoichiometry N in assay [1] and in assay [3] was 1 in each case.
